Experimental data from patent US20130344070A1.

How the values were obtained:
[1] = target: human CCR2 (CC-Chemokine Receptor 2) (human) (UniProt P41597); assay: cell-based or functional assay
[2] = target: murine CCR2 (murine) (UniProt P51683); assay: cell-based or functional assay
Sequence of murine CCR2 (murine) (P51683 whole entry): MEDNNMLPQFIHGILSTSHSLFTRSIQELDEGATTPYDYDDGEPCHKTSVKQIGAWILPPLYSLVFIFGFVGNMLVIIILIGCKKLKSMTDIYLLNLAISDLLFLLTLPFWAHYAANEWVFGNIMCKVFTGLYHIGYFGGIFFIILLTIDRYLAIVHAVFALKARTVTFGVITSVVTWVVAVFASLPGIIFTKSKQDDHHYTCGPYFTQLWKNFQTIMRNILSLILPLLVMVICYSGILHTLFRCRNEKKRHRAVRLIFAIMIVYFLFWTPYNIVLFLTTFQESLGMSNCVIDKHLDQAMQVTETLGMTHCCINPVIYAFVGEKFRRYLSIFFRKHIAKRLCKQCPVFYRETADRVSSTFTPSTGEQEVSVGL

Sequence of human CCR2 (CC-Chemokine Receptor 2) (human) (P41597 whole entry): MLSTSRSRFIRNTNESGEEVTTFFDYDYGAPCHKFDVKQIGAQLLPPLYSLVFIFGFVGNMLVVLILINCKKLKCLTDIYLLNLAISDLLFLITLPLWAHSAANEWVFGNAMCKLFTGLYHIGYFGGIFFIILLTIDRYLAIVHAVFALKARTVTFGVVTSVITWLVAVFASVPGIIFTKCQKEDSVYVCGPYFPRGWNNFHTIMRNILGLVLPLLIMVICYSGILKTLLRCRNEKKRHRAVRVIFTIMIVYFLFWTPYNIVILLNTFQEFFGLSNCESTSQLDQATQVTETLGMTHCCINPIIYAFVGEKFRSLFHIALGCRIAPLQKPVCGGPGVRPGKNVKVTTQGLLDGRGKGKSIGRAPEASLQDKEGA

EC50 of MCP-1, MCP-1-induced calcium flux, THP-1 cells [1] | EC50 of MCP-1, MCP-1-induced calcium flux, primary human monocytes [1] | EC50 of MCP-1, MCP-1-induced chemotaxis, THP-1 cells [1] | EC50 of MCP-1, MCP-1-induced chemotaxis, primary human monocytes [1] | EC50 of mMCP-1, mMCP-1-induced chemotaxis, WEHI 274.1 cells [2] | Substance
3.3 nM | 3.79 nM | 0.8 nM | 0.389 nM | – | human MCP-1 (PROSPEC # CHM-271) (from UniProt P13500 24-99) (ligand)
– | – | – | – | 0.12 nM | mMCP-1 (mouse MCP-1) (from UniProt P10148 24-148) (ligand)
